Laboratory results from US20220251236A1 (Boehringer Ingelheim, published 2022).

Key:
Cyno DLL3-His = biological target: T1, Cyno DLL3-His (cynomolgus monkey, UniProt Q9NYJ7 27-492 (human entry)); experiment: SPR; ratio of the KD values for human and cyno DLL3
T1 construct: also called cy DLL3; recombinant cyno DLL3-ECD
T1 chain: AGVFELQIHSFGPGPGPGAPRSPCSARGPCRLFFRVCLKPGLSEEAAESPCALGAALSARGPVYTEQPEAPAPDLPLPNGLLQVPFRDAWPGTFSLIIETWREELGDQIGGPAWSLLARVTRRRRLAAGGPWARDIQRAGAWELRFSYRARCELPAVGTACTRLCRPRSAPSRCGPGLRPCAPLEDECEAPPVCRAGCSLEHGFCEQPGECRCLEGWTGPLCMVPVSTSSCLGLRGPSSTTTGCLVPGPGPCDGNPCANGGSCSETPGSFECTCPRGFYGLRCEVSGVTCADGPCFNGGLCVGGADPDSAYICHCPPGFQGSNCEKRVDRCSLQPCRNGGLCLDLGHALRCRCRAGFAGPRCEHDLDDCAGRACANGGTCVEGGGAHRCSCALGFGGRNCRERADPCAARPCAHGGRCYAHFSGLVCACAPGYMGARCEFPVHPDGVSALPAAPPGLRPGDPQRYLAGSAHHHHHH
Procedure: (§1) The binding affinity of purified DLL3/CD3 bispecific constructs for recombinant human and cyno DLL3-ECD and Fc-fusion proteins of human and cyno CD3 εγ subunits was determined by Surface Plasmon Resonance (SPR), using a ProteOn XPR36 instrument (Bio-Rad). The running buffer and all dilutions (except where stated) were done in PBS-T-EDTA. The GLM sensor chip (Bio-Rad) was normalized and pre-conditioned as per the manufacturer's recommendations. The sensor chip was activated with equal mixture of EDC/s-NHS in the horizontal direction for 300 sec at a flow rate of 30 ul/min and immobilized with protein A/G (20 ug/ml in 10 mM acetate pH 4.5) in the horizontal direction for 300 sec at a flowrate of 30 ul/min resulting in ˜5000 RU of protein A/G on the surface. The sensor chip was deactivated with 1M ethanolamine HCl in the horizontal direction for 300 sec at a flowrate of 30 μl/min.
For binding kinetic determination to DLL3, bispecific molecules were captured individually on the protein A/G surface vertically for 250 sec at a flowrate of 25 μl/min. The baseline was stabilized by injecting PBS-T-EDTA for 60 sec at a flowrate of 40 μl/min horizontally. The analyte (hu DLL3 or cy DLL3) was injected horizontally over the captured antibody for 600 sec at a flowrate of 40 μl/min and a dissociation for 2700 sec.
(§2) The inter spot (interactions with sensor surface) and blank (PBS-T-EDTA) were subtracted from the raw data.

[1] = biological target: T2, EGF6+MEMBRANE PROXIMAL PEPTIDE; experiment: flow cytometry on HEK293 cells expressing the DLL3 subdomain construct, 1.6 nM binder, PE anti-human secondary, control: secondary antibody only
T2 construct: also called Hu DLL3 EGF6+membrane proximal peptide on HEK293 cells
T2 membrane-anchored DLL3 subdomain construct: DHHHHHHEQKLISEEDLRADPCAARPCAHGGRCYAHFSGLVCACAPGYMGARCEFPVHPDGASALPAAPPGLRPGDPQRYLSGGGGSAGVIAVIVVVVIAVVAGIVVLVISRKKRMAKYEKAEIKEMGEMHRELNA
Procedure: DLL3/CD3 binding proteins were produced by transient transfection of CHO-E cells with the pTT5 vectors carrying the chain-encoding genes, as described in Example 2. […] Bound molecules were detected with PE-conjugated anti-human secondary antibody (Sigma-Aldrich, #P8047). As negative control, cells were incubated with secondary antibody only.
The samples were measured by flow-cytometry. […] The sequences of the epitope domains are listed in Example 5, Table 3.

[2] = biological target: T3, chicken egg white lysozyme (chicken, UniProt P00698 19-147); experiment: SPR (Biacore T200), lysozyme coupled to CM5 chip, non-specific binding assay
T3 construct: also called Lysozyme (positive)
T3 sequence (P00698 19-147): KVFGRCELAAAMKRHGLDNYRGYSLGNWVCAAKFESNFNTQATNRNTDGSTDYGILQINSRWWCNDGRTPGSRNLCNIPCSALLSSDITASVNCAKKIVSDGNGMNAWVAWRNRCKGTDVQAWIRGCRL
Procedure: The experiment was performed on a Biacore T200. The dilution, surface preparation, and binding experiments were performed at 25° C. in 1×HBS-EP buffer prepared from 10× HBS-EP. The flow rate for both the immobilization protocol and binding experiment was at 5 μL/min.
To prepare the surface for the non-specific binding experiment, chicken egg white lysozyme and trypsin inhibitor from glycine max soybean were coupled manually to a series S CM5 chip with the surface density of 3000-5000 RU using the amine coupling kit according to the manufacture instructions.
Samples were prepared at 1 μM in 1×HBS-EP buffer. The samples were injected over activated surfaces with a 10 min association and 10 min dissociation. The data was collected using Biacore T200 Control Software version 2.0.1 and analyzed using Biacore T200 Evaluation Software version 3.0.

[3] = biological target: T4, human DLL3 (endogenous, on SCLC cell lines NCI-H82 and SHP77 and in SCLC tissue) (human, UniProt Q9NYJ7 27-618); experiment: cell-based or functional assay
T4 sequence (looked up): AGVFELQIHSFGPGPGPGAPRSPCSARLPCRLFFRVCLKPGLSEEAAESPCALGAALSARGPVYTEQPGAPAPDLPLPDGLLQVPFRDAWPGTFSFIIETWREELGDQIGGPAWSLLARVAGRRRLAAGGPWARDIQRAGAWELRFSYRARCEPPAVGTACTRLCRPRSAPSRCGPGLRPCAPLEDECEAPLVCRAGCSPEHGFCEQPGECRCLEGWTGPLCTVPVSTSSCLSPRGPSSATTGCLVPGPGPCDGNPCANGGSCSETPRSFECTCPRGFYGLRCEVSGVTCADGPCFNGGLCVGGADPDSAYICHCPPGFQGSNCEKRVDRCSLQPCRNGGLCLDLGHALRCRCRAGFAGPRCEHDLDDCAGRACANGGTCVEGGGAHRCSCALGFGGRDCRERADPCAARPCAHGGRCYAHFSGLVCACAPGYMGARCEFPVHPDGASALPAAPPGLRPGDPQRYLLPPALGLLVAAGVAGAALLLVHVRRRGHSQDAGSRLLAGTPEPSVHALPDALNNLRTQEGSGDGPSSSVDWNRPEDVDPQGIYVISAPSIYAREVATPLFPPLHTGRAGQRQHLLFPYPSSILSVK

Human CD3 E+G HuFc-6xHis = biological target: T5, Human CD3 E+G HuFc-6xHis (human); experiment: SPR (ProteOn XPR36), CD3εγ-Fc amine-coupled, bispecific as analyte, equilibrium fit, Example 4A
T5 construct: also called hu CD3εγ-Fc
T5 sequence (chain, as listed by the source limits assumed): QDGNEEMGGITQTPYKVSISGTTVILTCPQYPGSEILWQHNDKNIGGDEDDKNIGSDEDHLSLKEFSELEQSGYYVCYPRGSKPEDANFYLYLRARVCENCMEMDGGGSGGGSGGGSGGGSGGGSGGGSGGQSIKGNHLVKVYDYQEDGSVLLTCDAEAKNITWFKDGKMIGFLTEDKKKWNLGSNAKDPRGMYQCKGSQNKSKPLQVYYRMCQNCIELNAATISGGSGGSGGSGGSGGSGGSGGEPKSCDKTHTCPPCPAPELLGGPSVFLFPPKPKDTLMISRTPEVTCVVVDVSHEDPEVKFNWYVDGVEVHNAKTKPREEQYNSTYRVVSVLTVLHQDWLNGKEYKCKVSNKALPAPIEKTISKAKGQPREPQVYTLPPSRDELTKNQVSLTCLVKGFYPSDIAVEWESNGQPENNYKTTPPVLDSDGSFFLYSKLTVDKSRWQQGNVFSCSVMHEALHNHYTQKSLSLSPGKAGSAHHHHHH
Procedure: as §1
For binding kinetic determination to CD3, hu CD3εγ-Fc and cy CD3εγ-Fc (dissolved in pH 4.5 acetate) was immobilized directly onto the sensor surface through amine coupling for 140 sec at a flowrate of 30 μl/min vertically. The baseline was stabilized by injecting PBS-T-EDTA for 60 sec at a flowrate of 40 μl/min horizontally. The analyte (the bispecific molecule) was injected horizontally over the captured CD3εγ-Fc construct for 600 sec at a flowrate of 40 μl/min and a dissociation for 600 sec.
as §2

B1: DLL3#3/CD3#2 (bispecific antibody, human IgG1, kappa, lambda, L234A L235A)
chain 1: DIQMTQSPSAMSASVGDRVTITCRASQGISNYLVWFQQKPGKAPKRLIYAVSSLYSGVPSRFSGSGSGTEFTLTISSLQPEDFATYYCLQHDSYPYTFGQGTKLEIKRTVAAPSVFIFPPSDEQLKSGTASVVCLLNNFYPREAKVQWKVDNALQSGNSQESVTEQDSKDSTYSLSSTLTLSKADYEKHKVYACEVTHQGLSSPVTKSFNRGECGGGGSEGKSSGSGSESKSTEGKSSGSGSESKSTGGGGSQVQLVQSGAEVKKPGASVKVSCKASGYTFTSYYVHWVRQAPGQGLEWMVIINPGGGTTSYAQKFLGRVTMTRDTSTNTVYMELKSLRSEDTAVYYCARGEAVTGNYFYYGMDVWGQGTTVTVSSASTKGPSVFPLAPSSKSTSGGTAALGCLVKDYFPEPVTVSWNSGALTSGVHTFPAVLQSSGLYSLSSVVTVPSSSLGTQTYICNVNHKPSNTKVDKRVEPKSCDKTHTCPPCPAPEAAGGPSVFLFPPKPKDTLMISRTPEVTCVVVDVSHEDPEVKFNWYVDGVEVHNAKTKPREEQYNSTYRVVSVLTVLHQDWLNGKEYKCKVSNKALPAPIEKTISKAKGQPREPQVYTLPPSREEMTKNQVSLWCLVKGFYPSDIAVEWESNGQPENNYKTTPPVLDSDGSFFLYSKLTVDKSRWQQGNVFSCSVMHEALHNHYTQKSLSLSPG
chain 2: EAVVTQEPSLTVSPGGTVTLTCRSSTGAVTTSNYANWVQEKPGQLPRGLIGGTNKRAPWVPARFSGSLLGGKAALTLSGAQPEDEAEYFCALWYSNLWVFGGGTKLTVLGQPKAAPSVTLFPPSSEELQANKATLVCLISDFYPGAVKVAWKADGSPVNTGVETTTPSKQSNNKYAASSYLSLTPEQWKSHRSYSCQVTHEGSTVEKTVAPAECSGGGGSEGKSSGSGSESKSTEGKSSGSGSESKSTGGGGSEVQLVESGGGLVQPGGSLKLSCAASGFTFNTYAMNWVRQAPGKGLEWVARIRSKYINYATYYADSVKDRFTISRDDSKNTAYLQMNNLKTEDTAVYYCVRHGNFGNSYVSWFAYWGQGTLVTVSAASTKGPSVFPLAPSSKSTSGGTAALGCLVKDYFPEPVTVSWNSGALTSGVHTFPAVLQSSGLYSLSSVVTVPSSSLGTQTYICNVNHKPSNTKVDKRVEPKSCDKTHTCPPCPAPEAAGGPSVFLFPPKPKDTLMISRTPEVTCVVVDVSHEDPEVKFNWYVDGVEVHNAKTKPREEQYNSTYRVVSVLTVLHQDWLNGKEYKCKVSNKALPAPIEKTISKAKGQPREPQVYTLPPSREEMTKNQVSLSCAVKGFYPSDIAVEWESNGQPENNYKTTPPVLDSDGSFFLVSKLTVDKSRWQQGNVFSCSVMHEALHNRFTQKSLSLSPG
notes: Heterodimer of one DLL3 chain and one CD3 chain (scFab-Fc, knob-in-hole)
With B1 the “Affinity gap KD hu/cyno DLL3” value (Cyno DLL3-His) was 1, the binding result [1] was “binds” and the binding result [2] was “no binding (tested: 1 µM)”. For the same binder, the “EC90, 72 hour cytotoxicity assay (LDH release), non-stimulated PBMCs as effector cells, NCI-H82 target cells” value [3] was 3.9 nM, the “EC90, 72 hour cytotoxicity assay (LDH release), non-stimulated PBMCs as effector cells, SHP77 target cells” value [3] was 16.5 nM and the Kd (Human CD3 E+G HuFc-6xHis) was 90 nM.
